Results: a protein production outcome set (Wang et al. 2014)

Experiment: label from the status in PepcDB records

Which protein production does the source give for “SVQEAPAALPTEPGPSPVPAFLGKLWALVGDPGTDHLIRWSPSGTSFLVSDQSRFAKEVLPQYFKHSNMASFVRQLNMYGFRKVVSIEQGGLLRPERDHVEFQHPSFVRGREQLLERVRRKVPALRGDDGRWRPEDLGRLLGEVQALRGVQESTEARLRELRQQNEILWREVVTLRQSHGQQHRVIGKLIQCLFGPLQAGPSNAGGKRKLSLMLDEGSSCPTPAKFNTCPLPGALLQDPYFIQSPLPETNLGLSPHRARGPIISDIPEDSPSPEGTRLSPSSDGRREKGLALLKEEPASPGGDGEAGLALAPNECDFCVTAPPPLPVAVVQAILEGKGSFSPEGPRNAQQPEPGDPREIPDRGPLGLESGDRSPESLLPPMLLQPPQESVEPAGPLDVLGPSLQGREWTLMDLDMELSLMQPLVPERGEPELAVKGLNSPSPGKDPTLGAPLLLDVQAALGGPALGLPGALTIYSTPESRTASYLGPEASPSP” here?
Its protein production is “not failed”.

For “SVSAGVQAVESILDREEIRRVILVGAGTGAGVALEIAKNQPRRVERLVLDSPLVTFDEKQLKGMSTALKMMPGFFFRKKNKKDLLQQVEEARTAVPMGFSEITMPTLIIRGSAAKAGIDSDLEKQIPSARATTIIGANWLTYTTHGRQTGAAIAEFLAQ”, which protein production is on record?
Its protein production is “failed”.

With “SVVAKVKIPEGTILTMDMLTVKVGEPKGYPPEDIFNLVGKKVLVTVEEDDTIMEELVDNHGKKIKS” as the sequence, how does the protein production read?
Its protein production is “not failed”.

For “SYDYQSAFDIIGPVMMGPSSSHTAGAVKIGNSARAVLGDMPKHIEIRYYESFAKTHQGHGTDVAIVGGAMGYSTFDSRIKSSLDIAKDENITIDIIEDEGESIGQHPNCAYIKANTKDGRYIEVIGISIGGGTIKLKGINVNGLNVELNHG”, which protein production is on record?
The protein production was “failed”.

For “TARLVAGLEDVQVYDGEDAVFSLDLSTIIQGTWFLNGEELKSNEPEGQVEPGALRYRIEQKGLQHRLILHAVKHQDSGALVGFSCPGVQDSAALTIQES”, which protein production is on record?
The protein production was “not failed”.

For “TDDEEKDNNGQGSVSVETNYLPIADPYVMFYNNKYYAYGTGGTTAGEGFACFSSDDLKNWKREGQALSATDSYGTWGFWAPEVYYVESKKKFYLFYSAEEHICVATSTTPEGPFRQEVKQPIWSEKSIDTSLFIDDDGTPYLYFVRFTDGNVIWVAQMTDDLMSIKTETLNQCIKAEVSWELLQGKVAEGPSLLKKNGVYYLIYSANHYENKGYGVGYATSDTPMGPWVKYSKNPLLQGDAATGLVGTGHGAPFQCKDGSWKYIFHAHWSAAEIQPRTSYIKDFAISDQGVVTISGTVIKPRVLK”, which protein production is on record?
Its protein production is “not failed”.

For “THSVETPYGSVTFTVYGTPKPKRPAIFTYHDVGLNYKSCFQPLFRFGDMQEIIQNFVRVHVDAPGMEEGAPVFPLGYQYPSLDQLADMIPCILQYLNFSTIIGVGVGAGAYILSRYALNHPDTVEGLVLINIDPNAKGWMDWAAHKLTGLTSSIPDMILGHLFSQEELSGNSELIQKYRGIIQHAPNLENIELYWNSYNNRRDLNFERGGETTLKCPVMLVVGDQAPHEDAVVECNSKLDPTQTSFLKMADSGGQPQLTQPGKLTEAFKYFLQG”, which protein production is on record?
The protein production was “not failed”.

Which protein production does the source give for “TIATSGKLNWGIRESFNNYTNGASKVEDGATLISTNNFEFKLEKATYDAAKERTEAQFRGKIVYLKYCDDMKTFTNCQLDLTIKDPKIVISNEENYVEAVVDSKQYPSGEWYKSNGPVKIANLYPGSATVDSKDNSTEWTNVVSALANPGGVKMFSEFYGENEGLAPLSFSYDG” here?
The protein production was “failed”.

With “TIDIDLQKEVEALLDKQIKKLRSQGAKDMDNAMMVVQNPKNGDILALAGKQINKSGKMTDYDIGTFTSQFAVGSSVKGGTLLAGYQNKAIKVGETMVDEPLHFQGGLTKRSYFNKNGHVSINDKQALMHSSNVYMFKTALKLAGDPYYSGMALPSDISSPAQKLRRGLNQVGLGVKTGIDLPNETRGQIEPLTNNPGNYLDLSIGQYDTYTPLQLSQYVSTIANDGYRIQPHIGLTIHESTNKDEVGPLKKKINGTVLNKVNNTEKEIKQIQEGFKMAFNDKDGTGYVSFKDTVVPTAGKTGTAEVFQNGEPRVNSTYIGYAPIDDPKLAFSIVYTNQPVPPPWLTGGDLGRDVINYYFKQLGKDDK” as the sequence, how does the protein production read?
Its protein production is “failed”.

Which protein production does the source give for “TIDSNFQNKVDEILQRNYSQIVKTIGPYSENAYVVAMNPQTGAILAMSGFHHDLATGEVTPNPLAPILNSEVPGSVVKAGTLTAGYETGVIKGNDVLTDEAILLAGSNPKASWWNASGGTTMQLTAEQALEYSSNAYMMKLVFKMMGVNYYPNMIFPYEVGDDTVFKELRKAFAEYGMGTKTGIDIPGETTGIQNKDFKDSSSAPQGGNLLDLSFGQYDTYSALQLAQYVSTVANNGIRVQPHVVEGIYGNDENGALGKILKEIEPKVLNKVNISEDQIGILQQGFYNVVNGTSPFTTARGLKSDKFSIAAKTGTAETQATDANGVNHTTVNSNLVAYAPYENPEIAISVVLPHLNDEASKPNQTIAKEVLEAYMEMYKK” here?
The protein production was “failed”.

For “TLLLIFSFFVVTIGGLVQIVPLFYLENTIEKVEGVRPYTPLELAGRDIYIREGCYVCHSQMIRPMRDETERYGHYSLAAESMYDHPFQWGSKRTGPDLARVGERYSDEWHVDHLTNPQSVVPESIMPKYGFLSHTVIDGRYIRDLMSVHRIVGVPYSDEMLENAVADFKAQANPDADTDGLLERYGKAAVRNFDGQAELTEMDALISYLQVLGT”, which protein production is on record?
Its protein production is “failed”.

Which protein production does the source give for “TMNNEMSDPQIEEFYTIVKELEKFDTFTNFLDVHQPELAIVFGRTKRRVDELTSALISKGYKAEGLHGDITQAKRLEVLKKFKNDQINILVATDVAARGLDISGVSHVYNFDIPQDTESYTHRIGRTGRAGKEGIAVTFVNPIEMDYIRQIEDANGRKMSALRPPHRKEVLQAREDDIKEKVENWMSKESESRLKRISTELLNEYNDVDLVAALLQELVEANDEVEVQLTFEKPLSRKGRNGKPSGSR” here?
Its protein production is “failed”.

Which protein production does the source give for “TNLAALSLDSLVAPDTPIQFDIISPVCEDQPGQAKAFGQGGRRTNPFGESGGSTKSETEDSILHQLFIVRFLGSMEVKSDDHPDVVYETMRQILAARAIHNIFRMTESHLLVTCDCLKLIDPQTQVTRLTFPLPCVVLYATHQENKRLFGFVLRTSSGRSESNLSSVCYIFESNNEGEKICDSVGLAKQIAL” here?
Its protein production is “failed”.

Which protein production does the source give for “TNWASGEDDHVVARAEYDFVAVSDEEISFRAGDMLNLALKEQQPKVRGWLLASLDGQTTGLIPANYVKILGKRRGRKTIE” here?
Its protein production is “not failed”.

Which protein production does the source give for “TPAVVERADADSQYEILVGGQRAGLTAYRDLGAQRVFFHTEIDEAFAGQGLASQLVQQALVDVRASGMRIVPVCPYVAKFLKRHDEFADITDPVTPEVLRW” here?
The protein production was “not failed”.

For “TRKVLVLDLDNTLWGGVIGDDGIEGIVIGEGSARGEAFKAFQLYCRALRERGILLAVSSKNDPERALAAFDHPEMVLRRSDFAAFVANWEDKGQGLQRIAQELNLGLEALVFFDDNPAERALLREQFPAVAVPEVPEEPETYIRCLAAAGLFEAV”, which protein production is on record?
Its protein production is “failed”.

With “TTQNELLNRIAELETKVAFQDNVIEELNQVLIHHQFVLDKLQTQVRHFANKFKNIQSSNVASQAEETPPPHY” as the sequence, how does the protein production read?
Its protein production is “failed”.

With “TTSDNTALFYRHWPTLLPGAKKVIVLFHRGHEHSGRLQHIVDELAMPDTAFYAWDARGHGQTSGPRGYSPSLARSVQDVDEFVRFAASDSQVGLEEVVVIAQSVGAVMVATWVHDYAPAIRGLVLASPAFKVKLYVPLARPGLALWHRLRGLFFINSYVKGRYLTHDRQRVASFNNDPLITRAIAVNILLDLYKTSERIVSDAAAITLPTQLLISGDDYVVHRQPQIDFYQRLRSPLKELHLLPGFYHDTLGEENRAQAFEKMQSFISRLYA” as the sequence, how does the protein production read?
Its protein production is “failed”.

For “TVAVSQIVEHPALDATRQGLLDGLKAKGYEEGKNLEFDYKTAQGNPAIAVQIARQYVGESPDVLVGIATPSAQALVSATRTIPVVFTAVTDPVGAKLVKSMKQPGKNVTGLSDLSPVAQHVELIQEILPQVKSIGVVFNPGEANAVTLVNLLKESAEAKGIKVVEATALKSADVQSATQAIAAKSDILYAPTDNTVASAIEGMIVAANQAKKPVFGGATSYVEKGAIAGLGFDYYQVGVQTADYVAAILDGQEPGKLDVKVATGSDLVINESAASKLGIQLPSSVVQRATSMQ”, which protein production is on record?
Its protein production is “not failed”.

For “TVDRSVAIVGTRAMSHYGKSATSMLAAGIADHHWTIVSGGALGVDTVAHTEALQRQKPTVAVCARGLDAPYPRKNAELLRSIVETGCLVSEYAPGLTPHRHRFLTRNRLVAALSQGTVVVEAAWRSGALNTLSWASALGRVAMAVPGPVTNTGSLGCHERIRNKEAELVCSAEEILALVGTLGEFDPN”, which protein production is on record?
Its protein production is “failed”.

For “TVDWASMKWARPYLNTNSLGANPKQPGDVAKVGDLVRLLRQDDGSLKFSQIPVAQSALVSLDPQNGAIRALVGGFAFEQSNYNRAMQAKRQPGSSFKPFIYSAALDNGYTASSLVNDAPIVFVDEYLDKVWRPKNDTNTFLGPIRLREALYKSRNLVSIRLLQALGVDSTIDYITRFGFAKQDLPRNLSLALGTATLTPMEIATGWATFANGGYKVSPYLIQTIENRDGQTLFVANPPSVPVNDVNTAPNTSTFAVHDSPSVVASPPGSPAQPQAPAVAERIVDGRTTYILNSMLQDVIKRGTGRRALSMNRPDIAGKTGTTNDSKDAWFSGYNADYVTTVWSGFDQPESLGRHEFGGTVSLPIWMDYMSAALKDKPPHQQ”, which protein production is on record?
The protein production was “failed”.

Which protein production does the source give for “TVEEVIEETPEKSELELANERADEFENKYLRAHAEMQNIQRRSSEERQQLQRYRSQDLAKAILPSLDNLERALAVEGLTDDVKKGLEMTRDSLIQALKEEG” here?
Its protein production is “not failed”.

For “TVHKQDGKVLEIELSSLKEALSFVSLIDGYYRLTADAHHYLCKEVAPPAVLENIHSNCHGPISMDFAISKLKKAGNQTGLYVLRCSPKDFNKYFLTFAVERENVIEYKHCLITKNENGEYNLSGTKRNFSNLKDLLNCYQMETVRSDSIIFQFTKCCPPKPKDKSNLLVFRTNGISDVQISPTLQRHNNVNQMVFHKIRNEDLIFNESLGQGTFTKIFKGVRREVGDYGQLHKTEVLLKVLDKAHRNYSESFFEAASMMSQLSHKHLVLNYGVCVCGEENILVQEFVKFGSLDTYLKKNKNSINILWKLGVAKQLAWAMHFLEEKSLIHGNVCAKNILLIREEDRRTGNPPFIKLSDPGISITVLPKDILQERIPWVPPECIENPKNLNLATDKWSFGTTLWEICSGGDKPLSALDSQRKLQFYEDKHQLPAPKWTELANLINNCMDYEPDFRPAFRAVIRDLNSLFTPDYELLTENDMLPNMRIGALGFSGAFEDRDPTQFEERHLKFLQQLGKGNFGSVEMCRYDPLQDNTGEVVAVKKLQHSTEEHLRDFEREIEILKSLQHDNIVKYKGVCYSAGRRNLRLIMEYLPYGSLRDYLQKHKERIDHKKLLQYTSQICKGMEYLGTKRYIHRDLATRNILVENENRVKIGDFGLTKVLPQDKEYYKVKEPGESPIFWYAPESLTESKFSVASDVWSFGVVLYELFTYIEKSKSPPVEFMRMIGNDKQGQMIVFHLIELLKSNGRLPRPEGCPDEIYVIMTECWNNNVSQRPSFRDLSLRVDQIRDSIAA”, which protein production is on record?
The protein production was “failed”.

With “TYIDGSIKRKHLVQNNQPVTLYWLRFQKSIVDTNKQDLQQSLQINTGQEPKTQALAQQILKQSDADPARYVKNILDWYRQQDFIYTLSPEQLNGNRTDQFLFQTRNGFCEHYASSFVLLMRYAGIPARVVIGYQGGQLAPDAQSLEVRQLDAHAWAEVLIDDSWHRIDPTAAIAPARLEHGMQYYLQEDRRIWGSEQHLFWKQQNFHLIQSFRVWSDYLQYQWQSKVIGYNVDQQKSFFSKLGIRSVYSAIVIMLLSICGLVIVYGIYVAYKRRGQSSFIEYQISRFQRKMSPSMKKQKSETFKVW” as the sequence, how does the protein production read?
Its protein production is “failed”.

Which protein production does the source give for “VAEVPEEHKSKDGNTTVGYVIFFYTYSTWKGRTVYMEDLYVMPEFRGNGIGKALLGAVAKEAKDQLCSRLQFSVLDWNKPSLDFYMAKGAEDLTAKEGWHFLRFHGMALDNLAQEAP” here?
Its protein production is “failed”.

For “VARCQVPDCEADISELKGYHKRHRVCLRCATASFVVLDGENKRYCQQCGKFHLLPDFDEGKRSCRRKLERHNNRRKRKPVDKGGVA”, which protein production is on record?
The protein production was “not failed”.

With “VDEPESMVNLAFVKNDSYEKGPDSVVVHVYVKEICRDTSRVLFREQDFTLIFQTRDGNFLRLHPGCGPHTTFRWQVKLRNLIEPEQCTFCFTASRIDICLRKRQSQRWGGLEAPAARVGGA” as the sequence, how does the protein production read?
The protein production was “not failed”.
